{"source": "patent US20250011430A1", "about": "(GUANGZHOU BIO GENE TECHNOLOGY, published 2025)", "binders": {"B1": {"name": "anti-B7H3 antibody 23H1 (antibody, V domains shown)", "VH": "EVKLVESGGGLVQPGGSLRLSCATSGFTFTDYYMSWVRQPPGKALEWLGFIRNKVNDYTTEYSVSVKGRFTISRDNSQTILYLQMNTLRAEDSATYYCARDSPYRPFAYWGQGTLVTVSA", "VL": "DIVMTQSPSSLTVTAGENVTMSCKSSQTLLNNGNQKNFLTWYQQKPGQPPKLLIYLASTRESGVPDRFTGSGSGTDFTLTISSVQAEDLAVYYCQNDYTYPLTFGAGTKLELKR"}, "B2": {"name": "humanized 2B8 (antibody, V domains shown)", "VH": "QVQLVQSGAEVKKPGASVKVSCKVSGYTFTDGAMHWVRQAPGQGLEWIGIINTNSGNTNYNQKFQGRVTMTRDTSISTAYMELSRLRSEDTAVYYCARGVFYYGYGAWFAYWGQGTLVTVSS", "VL": "DIQLTQSPSFLSASVGDRVTINCRASKTISNYLAWYQQKPGKAPKLLIYSGSTLQSGVPSRFSGSGSGTDFTLTISSLQPEDFATYYCQQHHEYPLTFGGGTKVEIKR", "notes": "also called hz2B8; h2B8"}, "B3": {"name": "humanized 6F7 with light chain variable region LV1 (antibody, V domains shown)", "VH": "EVQLVESGGGLVQPGGSLRLSCAASGFTFTDYYMSWVRQAPGKGLEWVAFIRNKANGYTTEYSASVKGRFTISRDDSKNSLYLQMNSLRAEDTAVYYCARDSHYRPFAYWGQGTLVTVSS", "VL": "DIVMTQSPLSLPVTPGEPASISCKSSQSLLNSGNQNNYLTWYLQKPGQSPQLLIYLASTRDSGVPDRFSGSGSGTDFTLKISRVEAEDVGVYYCQNDYTYPLTFGGGTKVEIKR", "notes": "also called hz6F7L1; h6F7H1L1"}, "B4": {"name": "humanized 6F7 with light chain variable region LV2 (antibody, V domains shown)", "VH": "EVQLVESGGGLVQPGGSLRLSCAASGFTFTDYYMSWVRQAPGKGLEWVAFIRNKANGYTTEYSASVKGRFTISRDDSKNSLYLQMNSLRAEDTAVYYCARDSHYRPFAYWGQGTLVTVSS", "VL": "DIVMTQSPDSLAVSLGERATINCKSSQSLLNSGNQNNYLTWYQQKPGQPPKLLIYLASTRDSGVPDRFSGSGSGTDFTLTISSLQAEDVAVYYCQNDYTYPLTFGGGTKVEIKR", "notes": "also called hz6F7L2; h6F7H1L2"}, "B5": {"name": "humanized 26B6 (antibody, V domains shown)", "VH": "EVQLVQSGAEVKKPGASVKVSCKASGYTFTEYTMHWVRQAPGQGLEWIGGINPNTGGTTYNQKFNGRVTMTRDTSISTAYMELSSLRSEDTAVYYCTRPYRDDGGFHWYFDVWGQGTLVTVSS", "VL": "EIVLTQSPATLSLSPGERATLSCSASSSVSYMQWYQQKPGLAPRLLIYDTSKLTSGIPDRFSGSGSGTDFTLTISRLEPEDFAVYYCQQWSSNPLTFGGGTKVEIKR", "notes": "also called hz26B6; h26B6"}, "B6": {"name": "chimeric antibody ch2B8 (antibody, V domains shown)", "VH": "QVQLQQSGPELVRPGVSVKISCKVSGYTFTDGAMHWVKRSHAKSLEWIGIINTNSGNTNYNQKFQGKATMTVDKSSSTAYMELARLTSEDSAIYYCARGVFYYGYGAWFAYWGQGTLVTVSA", "VL": "DVQITQSPSYLTASPGETIIINCRASKTISNYLAWYQEKPGKTNKLLIYSGSTLQSGIPSRFSGSGSDTDFTLTISSLEPEDFAMYYCQQHHEYPLTFGAGTKLELKR"}, "B7": {"name": "chimeric antibody ch26B6 (antibody, V domains shown)", "VH": "EVQLQQSGPELVKPGASVKISCKTSGYAFTEYTMHWVKQSQGKSLEWIGGINPNTGGTTYNQKFNGKATLTVDRSSSTAYMELRSLTSEDSAVYYCTRPYRDDGGFHWYFDVWGAGTAVTVSS", "VL": "QIVLTQSPAVMSTSPGEKVTMTCSASSSVSYMQWYQQKSGTSPKRWIYDTSKLTSGVPARFSGSGSGTSYSLTISSMEAEDAATYYCQQWSSNPLTFGAGTKLELKR"}, "B8": {"name": "chimeric antibody ch6F7 (antibody, V domains shown)", "VH": "EVKLVESGGGLVQPGGSLRLSCATSGFTFTDYYMSWVRQPPGKALEWLGFIRNKANGYTTEYSASVKGRFTISSDDSQSILYLQMNTLRAEDSATYYCARDSHYRPFAYWGQGTLVTVSA", "VL": "DIQMTQSPSSLTVTAGEKVTMSCKSSQSLLNSGNQNNYLTWYQQKPGQPPKLLIYLASTRDSGVPDRFTGSGSGTDFTLTISSVQAEDLAVYYCQNDYTYPLTFGAGTKLELKR"}}}
{"molecular_target": "T1, B7H3 on cells (B7H3 on HEK293 cells; B7H3 expressed from plasmid on HEK-293T and QT6 cells) (human, UniProt Q5ZPR3 29-534)", "T1 construct": "whole, on cells; also called HEK293 B7H3 proteins; human B7H3", "T1 sequence (looked up)": "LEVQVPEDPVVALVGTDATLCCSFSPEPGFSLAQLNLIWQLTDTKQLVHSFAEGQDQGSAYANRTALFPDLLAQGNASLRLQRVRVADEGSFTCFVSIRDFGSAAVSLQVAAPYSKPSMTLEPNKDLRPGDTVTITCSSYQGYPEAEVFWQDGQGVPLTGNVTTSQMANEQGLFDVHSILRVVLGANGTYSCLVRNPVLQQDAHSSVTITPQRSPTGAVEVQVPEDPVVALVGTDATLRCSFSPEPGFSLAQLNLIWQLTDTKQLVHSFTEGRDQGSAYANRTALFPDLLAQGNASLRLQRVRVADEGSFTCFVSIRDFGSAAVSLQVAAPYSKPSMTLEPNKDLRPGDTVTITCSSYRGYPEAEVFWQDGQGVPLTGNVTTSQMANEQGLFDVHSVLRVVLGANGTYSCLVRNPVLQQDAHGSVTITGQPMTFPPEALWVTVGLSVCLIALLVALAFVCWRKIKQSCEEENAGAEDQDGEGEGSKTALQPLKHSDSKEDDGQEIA", "assay": "flow cytometry on HEK293 cells, FITC-labelled secondary antibody; y axis without title", "experimental": "5×10⁵ HEK293 cells were resuspended with PBS+5% BSA and incubated for 30 min at 4° C. Different concentrations of antibody (1 μg/mL to 0.01 μg/mL, 10-fold gradient dilution) were added and incubated for 60 min at 4° C. After centrifugation and washing, a PBS+5% BSA solution containing an FITC-labeled secondary antibody (1:200, sigma, F9512) was added and incubated on ice for 30 min in the dark. Cells were washed three times before the flow cytometry analysis.\nUsing the flow cytometry method, the control antibodies (huM30, Eno) and the 2B8, 26B8, 23H1 and 6F7 antibody were tested for their binding abilities to HEK293 B7H3 proteins at a final concentration of 1 μg/mL, 0.1 μg/mL and 0.01 μg/mL, respectively. Compared with the control antibodies, the 2B8, […], 23H1 and 6F7 antibody each have the same or better binding ability to the HEK293 B7H3 proteins."}
{"binder": "B1", "binding result": "binds"}
{"molecular_target": "T1, B7H3 on cells (B7H3 on HEK293 cells; …)", "assay": "flow cytometry on HEK293 cells", "experimental": "(§1) 2×10⁵ HEK293 cells were resuspended with PBS+5% BSA and incubated for 30 min at 4° C. Different concentrations of humanized antibody (5 μg/mL to 0.002286 μg/mL, 3-fold gradient dilution) were added and incubated for 60 min at 4° C. After centrifugation and washing, a PBS+5% BSA solution containing an FITC-labeled secondary antibody (1:200, sigma, F9512) was added and incubated on ice for 30 min in the dark. Cells were washed three times before the flow cytometry analysis. EC50 was calculated using GraphPad software.", "units": {"EC50": "µg/mL"}}
{"binder": "B2", "EC50": 0.0779}
{"binder": "B3", "EC50": 0.604}
{"binder": "B4", "EC50": 0.41}
{"binder": "B5", "EC50": 0.306}
{"binder": "B6", "EC50": 0.132}
{"binder": "B7", "EC50": 0.224}
{"molecular_target": "T1, B7H3 on cells (B7H3 on HEK293 cells; …)", "assay": "flow cytometry on HEK293 cells (text value, conflicts with Table 2)", "experimental": "as §1", "units": {"EC50": "µg/mL"}}
{"binder": "B7", "EC50": 0.232}
{"binder": "B8", "EC50": 0.224}
